Our source for the IC50, Km and Vmax values is article PMC8345934, “Biochemical Studies of Mitochondrial Malate: Quinone Oxidoreductase from Toxoplasma gondii” (International Journal of Molecular Sciences, 2021).

For data set [1], the target named is T1, malate:quinone oxidoreductase (TgMQO) (Toxoplasma gondii, UniProt Q1KSF3).
T1 construct: gene mqo; lacking the mitochondrial targeting signal (Δ1-37 residues), His-tag purified
T1 sequence (Q1KSF3 38-549): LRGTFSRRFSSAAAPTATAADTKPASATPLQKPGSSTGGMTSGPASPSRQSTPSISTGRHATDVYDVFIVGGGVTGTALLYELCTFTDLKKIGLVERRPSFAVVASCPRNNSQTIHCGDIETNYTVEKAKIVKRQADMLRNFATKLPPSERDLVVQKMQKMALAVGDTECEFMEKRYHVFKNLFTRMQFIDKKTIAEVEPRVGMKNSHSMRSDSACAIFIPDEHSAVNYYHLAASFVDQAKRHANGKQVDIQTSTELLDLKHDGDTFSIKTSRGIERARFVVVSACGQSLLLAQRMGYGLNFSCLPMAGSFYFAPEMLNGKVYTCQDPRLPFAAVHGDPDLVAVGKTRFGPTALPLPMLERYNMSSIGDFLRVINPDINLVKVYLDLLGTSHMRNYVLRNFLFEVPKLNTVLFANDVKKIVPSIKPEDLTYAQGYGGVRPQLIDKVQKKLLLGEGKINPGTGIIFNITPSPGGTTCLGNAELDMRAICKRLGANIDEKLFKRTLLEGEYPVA
Nature of the data set: spectrophotometric dUQ reduction at […] nm, purified recombinant enzyme. The format is biochemical.

Substrate in data set [2]: COC1=C(OC)C(=O)C(C/C=C(\C)CC/C=C(\C)CC/C=C(\C)CC/C=C(\C)CC/C=C(\C)CCC=C(C)C)=C(C)C1=O
Nature of the data set: purified protein. The settings on record: FAD ubiquinone binding site.

Substrate in data set [3]: COC1=C(OC)C(=O)C(CC=C(C)C)=C(C)C1=O
Nature of the data set: purified protein. The settings on record: FAD ubiquinone binding site.

Substrate in data set [4]: O=C(O)C[C@H](O)C(=O)O
Description: purified protein. The settings on record: FAD malate binding site.

Substrate in data set [5]: COC1=C(OC)C(=O)C(C/C=C(\C)CC/C=C(\C)CC/C=C(\C)CCC=C(C)C)=C(C)C1=O
Nature of the data set: purified protein. The settings on record: FAD ubiquinone binding site.

Substrate in data set [6]: COC1=C(OC)C(=O)C(C)=CC1=O
Nature of the data set: purified protein. As to conditions: FAD ubiquinone binding site.

Substrate in data set [7]: COC1=C(OC)C(=O)C(C/C=C(\C)CCC=C(C)C)=C(C)C1=O
Nature of the data set: purified protein. As to conditions: FAD ubiquinone binding site.

Substrate in data set [8]: CCCCCCCCCCC1=C(C)C(=O)C(OC)=C(OC)C1=O
Nature of the data set: purified protein. The settings on record: FAD ubiquinone binding site.

As to `CC(C)=CCC/C(C)=C/CC/C(C)=C/Cc1c(O)c2ccccc2oc1=O` [Ferulenol], the IC50 (commonly the concentration that gives 50% inhibition) in data set [1] worked out at 822 ± 151 nM.

B1: malate:quinone oxidoreductase (TgMQO) (Toxoplasma gondii) (protein)
chain: T1 sequence (Q1KSF3 38-549)
B1: the Km (as a rule, the substrate concentration at which the rate is half of its maximum) in the data set “purified protein [2]” amounted to 8.0 ± 3.3 µM; in “purified protein [3]”, 116 ± 16 µM; in the data set “purified protein [4]” it was 370 ± 140 µM; in “purified protein [5]” it was 7.7 ± 4.3 µM; in “purified protein [6]”, 225 ± 77 µM; in the data set “purified protein [7]”, 13.2 µM. Also, in “purified protein [8]”, the Km was found to be 17 ± 4.7 µM. Moreover, the Vmax (usually the top rate of the reaction or transport when substrate is in excess) in “purified protein [2]” stood at 3.64 µmol/min/mg; in the data set “purified protein [3]”, 44.2 µmol/min/mg; in the data set “purified protein [4]”, 6.3 µmol/min/mg; in the data set “purified protein [5]”, 4.39 µmol/min/mg; in the data set “purified protein [6]”, 12.7 µmol/min/mg; in “purified protein [7]”, 45.1 µmol/min/mg. Also, the Vmax in “purified protein [8]” is 12.1 µmol/min/mg.
